Assay results: the supplement of paper PMC6755084

B1: F1*; the commonest letter at each place (parent)
chain: GAGACCGCAACTGAAAAGTTGTTATCACTTGTCGTAAGACACTTTGGATGGGTTGAAGTTCTGCACGTAGAAGCAAAAGGC

Variants of: B1
Assay: fraction ligated after 30 min (ligated reads / total reads); higher = more ligase activity
Settings: with F1*sub RNA substrate (template-directed ligation), 42 °C
Procedure, shortened: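 The ligase ribozyme variants were produced by PCR amplification of oligo-pool templates, T7 transcription and purification on gel. Their ligated and unligated forms were gel-separated, then reverse transcribed with barcoded primers before MiSeq sequencing. Core bases were filtered at a quality of ≥20, and fraction ligated per variant was ligated reads over total reads.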

Compared with A37C G46T, A37C G47A is higher in fraction ligated: 0.785 for the first, 0.796 for the second.

Compared with A37C G47C, A37C G47T is lower in fraction ligated: 0.444 for the first, 0.406 for the second.

First: A37C G50A
Second: A37C G50C
The fraction ligated of the first is higher: 0.616 for the first, 0.439 for the second.

Going from A37C G50T to A37C G55A, the fraction ligated rises from 0.787 to 0.837.

Compared with A37C G55C, A37C G55T is higher in fraction ligated: 0.826 for the first, 0.845 for the second.

Going from A37C T43A to A37C T43C, the fraction ligated falls from 0.832 to 0.817.

First: A37C T43G
Second: A37C T44A
The fraction ligated of the first is lower: 0.806 for the first, 0.84 for the second.

Going from A37C T44C to A37C T44G, the fraction ligated rises from 0.843 to 0.859.

First: A37C T45A
Second: A37C T45C
The fraction ligated of the first is higher: 0.78 for the first, 0.778 for the second.

Going from A37C T45G to A37C T49A, the fraction ligated rises from 0.415 to 0.778.

Compared with A37C T49C, A37C T49G is higher in fraction ligated: 0.737 for the first, 0.797 for the second.

Going from A37G to A37G A39C, the fraction ligated falls from 0.857 to 0.776.

First: A37G A39G
Second: A37G A39T
The fraction ligated of the first is higher: 0.853 for the first, 0.796 for the second.

First: A37G A41C
Second: A37G A41G
The fraction ligated of the first is lower: 0.787 for the first, 0.822 for the second.

Compared with A37G A41T, A37G A48C is lower in fraction ligated: 0.859 for the first, 0.763 for the second.

Compared with A37G A48G, A37G A48T is higher in fraction ligated: 0.795 for the first, 0.799 for the second.

First: A37G A56C
Second: A37G A56G
The fraction ligated of the first is lower: 0.802 for the first, 0.818 for the second.

First: A37G A56T
Second: A37G A57C
The fraction ligated of the first is lower: 0.819 for the first, 0.82 for the second.

Going from A37G A57G to A37G A57T, the fraction ligated falls from 0.859 to 0.823.

Compared with A37G C40A, A37G C40G is higher in fraction ligated: 0.807 for the first, 0.829 for the second.

First: A37G C40T
Second: A37G C42A
The fraction ligated of the first is lower: 0.854 for the first, 0.859 for the second.

A37G C42G and A37G C42T are the same in fraction ligated: 0.857 for the first, 0.857 for the second.

Compared with A37G G38A, A37G G38C is lower in fraction ligated: 0.882 for the first, 0.828 for the second.

First: A37G G38T
Second: A37G G46A
The fraction ligated of the first is higher: 0.849 for the first, 0.818 for the second.

Compared with A37G G46C, A37G G46T is lower in fraction ligated: 0.81 for the first, 0.806 for the second.

Going from A37G G47A to A37G G47C, the fraction ligated falls from 0.831 to 0.269.

Going from A37G G47T to A37G G50A, the fraction ligated rises from 0.397 to 0.659.

Compared with A37G G50C, A37G G50T is higher in fraction ligated: 0.45 for the first, 0.785 for the second.

First: A37G G55A
Second: A37G G55C
The fraction ligated of the first is higher: 0.846 for the first, 0.833 for the second.

First: A37G G55T
Second: A37G T43A
The fraction ligated of the first is lower: 0.834 for the first, 0.867 for the second.

First: A37G T43C
Second: A37G T43G
The fraction ligated of the first is higher: 0.853 for the first, 0.814 for the second.

Going from A37G T44A to A37G T44C, the fraction ligated rises from 0.839 to 0.869.

Compared with A37G T44G, A37G T45A is lower in fraction ligated: 0.85 for the first, 0.804 for the second.

Compared with A37G T45C, A37G T45G is lower in fraction ligated: 0.803 for the first, 0.407 for the second.

Compared with A37G T49A, A37G T49C is lower in fraction ligated: 0.796 for the first, 0.744 for the second.

First: A37G T49G
Second: A37T
The fraction ligated of the first is lower: 0.807 for the first, 0.853 for the second.

First: A37T A39C
Second: A37T A39G
The fraction ligated of the first is lower: 0.785 for the first, 0.837 for the second.

First: A37T A39T
Second: A37T A41C
The fraction ligated of the first is higher: 0.831 for the first, 0.785 for the second.

Going from A37T A41G to A37T A41T, the fraction ligated rises from 0.799 to 0.815.

Going from A37T A48C to A37T A48G, the fraction ligated rises from 0.763 to 0.804.

Compared with A37T A48T, A37T A56C is higher in fraction ligated: 0.675 for the first, 0.786 for the second.

Compared with A37T A56G, A37T A56T is higher in fraction ligated: 0.807 for the first, 0.83 for the second.

First: A37T A57C
Second: A37T A57G
The fraction ligated of the first is higher: 0.854 for the first, 0.842 for the second.

Going from A37T A57T to A37T C40A, the fraction ligated falls from 0.838 to 0.809.

Compared with A37T C40G, A37T C40T is higher in fraction ligated: 0.82 for the first, 0.842 for the second.

First: A37T C42A
Second: A37T C42G
The fraction ligated of the first is higher: 0.85 for the first, 0.849 for the second.

First: A37T C42T
Second: A37T G38A
The fraction ligated of the first is higher: 0.858 for the first, 0.827 for the second.

First: A37T G38C
Second: A37T G38T
The fraction ligated of the first is higher: 0.841 for the first, 0.838 for the second.

First: A37T G46A
Second: A37T G46C
The fraction ligated of the first is higher: 0.807 for the first, 0.8 for the second.

Compared with A37T G46T, A37T G47A is higher in fraction ligated: 0.784 for the first, 0.806 for the second.

Compared with A37T G47C, A37T G47T is higher in fraction ligated: 0.178 for the first, 0.346 for the second.

Going from A37T G50A to A37T G50C, the fraction ligated falls from 0.602 to 0.388.

Compared with A37T G50T, A37T G55A is higher in fraction ligated: 0.793 for the first, 0.862 for the second.

Going from A37T G55C to A37T G55T, the fraction ligated rises from 0.8 to 0.828.

Going from A37T T43A to A37T T43C, the fraction ligated falls from 0.848 to 0.806.

First: A37T T43G
Second: A37T T44A
The fraction ligated of the first is lower: 0.804 for the first, 0.834 for the second.

First: A37T T44C
Second: A37T T44G
The fraction ligated of the first is higher: 0.847 for the first, 0.825 for the second.

First: A37T T45A
Second: A37T T45C
The fraction ligated of the first is higher: 0.787 for the first, 0.768 for the second.

Going from A37T T45G to A37T T49A, the fraction ligated rises from 0.408 to 0.802.

Going from A37T T49C to A37T T49G, the fraction ligated rises from 0.733 to 0.791.

Compared with G38A, G38A A39C is lower in fraction ligated: 0.844 for the first, 0.817 for the second.

Going from G38A A39G to G38A A39T, the fraction ligated falls from 0.854 to 0.829.

Going from G38A A41C to G38A A41G, the fraction ligated falls from 0.782 to 0.765.

Going from G38A A41T to G38A A48C, the fraction ligated falls from 0.793 to 0.766.

Compared with G38A A48G, G38A A48T is lower in fraction ligated: 0.796 for the first, 0.252 for the second.

First: G38A A56C
Second: G38A A56G
The fraction ligated of the first is lower: 0.778 for the first, 0.783 for the second.

Going from G38A A56T to G38A A57C, the fraction ligated rises from 0.808 to 0.825.

First: G38A A57G
Second: G38A A57T
The fraction ligated of the first is higher: 0.855 for the first, 0.819 for the second.

Going from G38A C40A to G38A C40G, the fraction ligated rises from 0.83 to 0.843.

Compared with G38A C40T, G38A C42A is higher in fraction ligated: 0.833 for the first, 0.854 for the second.

Going from G38A C42G to G38A C42T, the fraction ligated rises from 0.837 to 0.87.

First: G38A G46A
Second: G38A G46C
The fraction ligated of the first is higher: 0.805 for the first, 0.792 for the second.

Compared with G38A G46T, G38A G47A is higher in fraction ligated: 0.791 for the first, 0.796 for the second.

Compared with G38A G47C, G38A G47T is higher in fraction ligated: 0.163 for the first, 0.324 for the second.

Compared with G38A G50A, G38A G50C is lower in fraction ligated: 0.391 for the first, 0.194 for the second.

Going from G38A G50T to G38A G55A, the fraction ligated rises from 0.72 to 0.838.

Going from G38A G55C to G38A G55T, the fraction ligated rises from 0.781 to 0.811.

First: G38A T43A
Second: G38A T43C
The fraction ligated of the first is higher: 0.835 for the first, 0.816 for the second.

Compared with G38A T43G, G38A T44A is higher in fraction ligated: 0.8 for the first, 0.838 for the second.

Compared with G38A T44C, G38A T44G is higher in fraction ligated: 0.818 for the first, 0.848 for the second.

First: G38A T45A
Second: G38A T45C
The fraction ligated of the first is higher: 0.773 for the first, 0.696 for the second.

Going from G38A T45G to G38A T49A, the fraction ligated rises from 0.0379 to 0.782.

First: G38A T49C
Second: G38A T49G
The fraction ligated of the first is lower: 0.245 for the first, 0.785 for the second.

G38C was tested, and the fraction ligated was 0.825.
